Publication PMC4634852

Target: Spindle-F (Spn-F) (UniProt Q9V9Y9)
Experiment: anti-FLAG co-IP of differently tagged Spn-F
Conditions: reference: wild-type Spn-F with Ik2; sites S53,S85,S172,S202,S264,S270,S325,S349

binding against the reference: stronger
Substance: Spindle-F (Spn-F) (from UniProt Q9V9Y9) SpnF-8A with Ik2
